Substitutions are numbered along the chain they refer to.
B1: 8 (VHH)
VHH: QVQLVESGGGLVQAGGSLRLSCAASGFPVKHREMYWYRQAPGKEREWVAAIVSKGNVTEYADSVKGRFTISRDNAKNTVYLQMNSLKPEDTAVYYCNVKDYGWWNAHYDYWGQGTQVTVS
B2: 14 (VHH)
VHH: B1 VHH with E33H, V52A, K54N, N56H, V57R, W103F, W104Y, N105L, A106W
B3: 11 (VHH)
VHH: B1 VHH with K30A, Y35F, V52T, N56S, V57Q, E59A, N105T, H107V
B4: 3 (VHH)
VHH: QVQLVESGGGLVQAGGSLRLSCAASGFPVNWKSMAWYRQAPGKEREWVAAISSFGWYTEYADSVKGRFTISRDNAKNTVYLQMNSLKPEDTAVYYCWVKVGATYYGQGTQVTVS
B5: 39 (VHH)
VHH: B4 VHH with N30K, F54W, W97Y, K99Y, A102H, Y105H
B6: 29 (VHH)
VHH: B4 VHH with N30K, S33T, F54W, W56L, T91S, W97Y, K99G, T103G, Y105R
B7: 23 (VHH)
VHH: B4 VHH with N30V, S33Q, F54W, K87N, W97F, A102D, T103G, Y105T
B8: 28 (VHH)
VHH: B4 VHH with N30V, S33T, A35W, F54Y, K65N, W97A, K99L, A102Y, Y105E
B9: 35 (VHH)
VHH: B4 VHH with N30R, F54Y, W56F, Y57W, W97I, K99H, A102V, T103S, Y105R
B10: 21 (VHH)
VHH: B4 VHH with N30K, S33T, F54W, W56L, W97L, K99Q, A102V, Y105H, Q107H
B11: 37 (VHH)
VHH: B4 VHH with N30W, W97A, K99Y, A102S, T103Y, Y105W, Q107R
B12: 1 (VHH)
VHH: QVQLVESGGGSVQAGGSLRLSCAASGWIQTITYLGWFRQAPGKEREGVAALVTNEGNTYYADSVKGRFTVSLDNAKNTVYLQMNSLKPEDTALYYCAAASWGFVTPLWYYYTYWGQGTQVTVS
B13: 27 (VHH)
VHH: QVQLVESGGGLVQAGGSLRLSCAASGFPVTTRSMYWYRQAPGKEREWVAAIASNGRLTAYADSVKGRFTISRDNAKNTVYLQMNSLEPEDTAVYYCEVFVGYYYHGQGTQVTVS
B14: 34 (VHH)
VHH: B13 VHH with T30N, T31N, N54S, R56F, L57T, E87K, F99V, Y103W
B15: 9 (VHH)
VHH: QVQLVESGGGLVQAGGSLRLSCAASGFPVKQHHMYWYRQAPGKEREWVAAIESGGKETRYADSVKGRFTISRDNAKNTVYLQMNSLKPEDTAVYYCNVKDWGWWWTNYDYWGQGTQVTVS
B16: 16 (VHH)
VHH: B15 VHH with K30A, Q31R, H32W, E52N, G54T, K56D, E57M, R59L, W104Y, T106V
B17: 17 (VHH)
VHH: B15 VHH with K30V, Q31G, H32W, E52N, G54S, E57K, R59L, W101A, W104F, T106Y
B18: 12 (VHH)
VHH: B15 VHH with K30Y, Q31T, H32A, H33Y, G54Q, K56Q, E57H, R59I, T106L
B19: 18 (VHH)
VHH: QVQLVESGGGLVQAGGSLRLSCAASGFPVNTAHMYWYRQAPGKEREWVAAIASSGDMTLYADSVKGRFTISRDNAKNTVYLQMNSLKPEDTAVYYCNVKDWGWWYVAYDYWGQGTQVTVS
B20: 20 (VHH)
VHH: QVQLVESGGGLVQAGGSLRLSCAASGFPVKTNKMAWYRQAPGKEREWVAAITSYGSWTVYADSVKGRFTISRDNAKNTVYLQMNSLKPEDTAVYYCAVWVGALYIGQGTQVTVS
B21: 22 (VHH)
VHH: QVQLVESGGGLVQAGGSLRLSCAASGFPVYKHTMYWYRQAPGKEREWVAAINSTGAETAYADSVKGRFTISRDNAKNTVYLQMNSLKPEDTAVYYCEVYVGWFYHGQGTQVTVS
B22: 36 (VHH)
VHH: B21 VHH with Y30N, K31T, N52T, T54N, A56Q, E57S, Y99R, W102Y
B23: 30 (VHH)
VHH: B21 VHH with Y30K, K31T, H32Y, N52E, A56R, E57Y, W102F
B24: 26 (VHH)
VHH: B21 VHH with Y30A, K31H, H32F, T33V, N52S, A56Y, E57N, W102Y
B25: 33 (VHH)
VHH: B21 VHH with Y30D, H32A, T33H, N52D, A56S, E57Y, A59H, W102Y, F103M
B26: 25 (VHH)
VHH: B21 VHH with Y30N, K31N, T33V, N52S, T54Q, W102Y
B27: 32 (VHH)
VHH: B13 VHH with T30A, T31E, R32K, R56V, E87K, F99Y, Y103F
B28: 31 (VHH)
VHH: B21 VHH with Y30T, K31E, H32N, N52T, T54N, A56S, E57Q, W102Y
B29: 38 (VHH)
VHH: B21 VHH with K31T, H32N, N52T, T54S, A56H, E57N
B30: 24 (VHH)
VHH: B21 VHH with Y30D, K31A, H32Y, T33V, N52A, T54Q, A56H, E57P, S63P, W102Y
B31: 19 (VHH)
VHH: QVQLVESGGGLVQAGGSLRLSCAASGFPVMENTMYWYRQAPGKEREWVAAIDSYGYYTYYADSVKGRFTISRDNAKNTVYLQMNSLKPEDTAVYYCNVKDVGDHWWFYDYWGQGTQVTVS
B32: 6 (VHH)
VHH: QVQLVESGGGSVQAGGSLRLSCAASGNISAIGYLGWFRQAPGKEREGVAALVTWFGKTYYADSVKGRFTVSLDNAKNTVYLQMNSLKPEDTALYYCAAATYGNKNPLTDSYYSYWGQGTQVTVS
B33: 2 (VHH)
VHH: QVQLVESGGGLVQAGGSLRLSCAASGFPVYRAFMAWYRQAPGKEREWVAAIHSTGWWTHYADSVKGRFTISRDNAKNTVYLQMNSLKPEDTAVYYCHVWVGYTYIGQGTQVTVS
B34: 5 (VHH)
VHH: QVQLVESGGGSVQAGGSLRLSCAASGYISGIEYLGWFRQAPGKEREGVAALYTFEGTTYYADSVKGRFTVSLDNAKNTVYLQMNSLKPEDTALYYCAAAKYGEWGPLWFHEYWYWGQGTQVTVS
B35: 10 (VHH)
VHH: QVQLVESGGGLVQAGGSLRLSCAASGFPVETRHMYWYRQAPGKEREWVAAIQSEGYLTHYADSVKGRFTISRDNAKNTVYLQMNSLKPEDTAVYYCNVKDIGWLWVHYDYWGQGTQVTVS
B36: 4 (VHH)
VHH: QVQLVESGGGSVQAGGSLRLSCAASGAINHIWYLGWFRQAPGKEREGVAALYTWTGWTYYADSVKGRFTVSLDNAKNTVYLQMNSLKPEDTALYYCAAAYFGFASPLRARRYEYWGQGTQVTVS

Target: engineered OX2R carrying an additional amino-terminal Avi-tag, biotinylated (Homo sapiens, UniProt O43614, residues V261–A291 deleted, biotin on the Avi-tag (BirA biotin-protein ligase))

Row | binding result | Binder
1 | binds | B1
2 | binds | B2
3 | binds | B3
4 | binds | B4
5 | binds | B5
6 | binds | B6
7 | binds | B7
8 | binds | B8
9 | binds | B9
10 | binds | B10
11 | binds | B11
12 | binds | B12
13 | binds | B13
14 | binds | B14
15 | binds | B15
16 | binds | B16
17 | binds | B17
18 | binds | B18

Row | binding result | Binder
19 | binds | B19
20 | binds | B20
21 | binds | B21
22 | binds | B22
23 | binds | B23
24 | binds | B24
25 | binds | B25
26 | binds | B26
27 | binds | B27
28 | binds | B28
29 | binds | B29
30 | binds | B30
31 | binds | B31
32 | binds | B32
33 | binds | B33
34 | binds | B34
35 | binds | B35
36 | binds | B36

— PMC7864924, “Structures of active-state orexin receptor 2 rationalize peptide and small-molecule agonist recognition and receptor activation” (Nature Communications, 2021)
